Tested on: MS2 coat protein
Assay: apparent KD of MS2 coat protein; higher = weaker reporter binding
Details: Eterna round: R107
How it was run: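 Apparent KD was obtained for each design as the median of normalised binding-curve fits over its clusters. RNA switches transcribed on-chip from Illumina sequencing clusters were titrated with SNAP-549-labelled MS2 coat protein (twofold steps, 0.7 or 1.5 nM to 3 µM) in 100 mM Tris-HCl pH 7.5, 80 mM KCl, 4 mM MgCl2, without or with constant ligand.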

[1] = input ligand: theophylline 20 uM
[2] = input ligand: theophylline 2 mM
[3] = input ligand: tryptophan 2.4 mM

Sequence	apparent KD of MS2 coat protein (input ligand: arginine 13.2 mM)	apparent KD of MS2 coat protein [1]	apparent KD of MS2 coat protein [2]	apparent KD of MS2 coat protein [3]	apparent KD of MS2 coat protein (input ligand: none)
GCAUCCUAGUCGGCCGCCACUGGUACGAACACCUUCACCCGUGUGCACAUGAGGAUCACCCAUGUCAGGACCGGGACUAGGAUGC [SSTryp B #22]	9.48 nM	10.9 nM	8.54 nM	–	–
GAUGAUAUUGCAGAUACCAGACACAUGAGGAUCACCCAUGUCGCUGAGUUGCUGGAUCGUGUCCCUUGGCAGCUGCGAUAUCAUC [Belgium]	18.3 nM	38.5 nM	–	19.7 nM	–
GGGCUGUGACCAGGAAAUGGUCACAGCCCACGAGGACCGGUACGGCCGCCACUCGAAAGUACAUGAGGAUCACCCAUGUCGGUGG [#1 Same State - Tryptophan A Attempt #8 (HarryS)]	25.9 nM	30.6 nM	37.9 nM	50.9 nM	34.1 nM
CUAUAAGUACCGGUCCUCAGAUCCUCAUGACGAGGACCGGUACGGCCGCCACUCGAAACAUGAGGAUCACCCAUGUAAUAAUAUU [Brourdmod10]	19 nM	31.5 nM	24.2 nM	–	–
GCAUCCUAGUCGGCCGCCACUGCAACAUGAGGAUCACCCAUGUCUGCAUCUUCAUGAUGCAGUAGCAGGACCGGGACUAGGAUGC [(T1)-(M1)-(M2)-(T)''-(M)'-(T)'-(T2)_Design1_2/18/17]	69.4 nM	153 nM	242 nM	–	–
AGUUAAAUAUGUUAAUAACUAUUUACUGAAGGAGCGUGUUUUGACACAGGUAGGUCGCAGUGACAUGAGGAUCACCCAUGUCGUA [#08 Same State - Arginine A]	20.3 nM	21.8 nM	21.6 nM	19.2 nM	17.4 nM
UGUAUGUGAUCUGAUACCAGUCCAACUGGUAAAAUAUGAGGAUCACCCAUAUAAAAUUGGGACCCUUGGCAGCAGAUCGCAUACU	108 nM	632 nM	129 nM	492 nM	265 nM
AGUCGAAACUGAAGGAGCGAGAUGACAACAUUGGGUCUAACAUGAGGAUCACCCAUGUAAUCUCAGGUAGGUCGCAGUAACAAAA [Exclusion Arginine B GF 16]	172 nM	165 nM	104 nM	93.1 nM	78.7 nM
AAAUAAAUACAUGAGGAUCACCCAUGUGAAGGAGCGCCCGUUAGGGCAGGUAGGUCGCACAUGAAUAACUCCGUGCAAAAGCACA [ArgEX 18 #OpenEnded]	20.9 nM	38.8 nM	37.1 nM	31.3 nM	29 nM
CUAUAAGUACCGGUCCUCAGAUCCUCAUGACGAGGACCGGUACGGCCGCCACUCGAAACAUGAGGAUCACCCAUGUAAUAAUAAU [Brourdmod06]	15 nM	38.5 nM	24.5 nM	–	–
CCUAUGCAGUCGGCCGCCACUGAACAUGAGGAUCACCCAUGUUUUUAUAAAUAUGGUCCUAUAAUCAGGACCGGGACUGUAUAGG [Ex Tryptophan B 9]	38.3 nM	59.7 nM	64.6 nM	69.2 nM	69.2 nM
ACAUGAGGAUCACCCAUGUAUUCAUCAGAAGGAGCGUGGAAUAACACAGGUAGGUCGCUGAUUAUUUGUUAAAUAAAUUCGUGUA [JR_Nu_SSArginiA_Sub023]	19.3 nM	19.1 nM	16 nM	16.4 nM	16.1 nM
UUAUAUUAUCGAAGGAGCGUCACAUGAGGAUCACCCAUGUACAUGAGGAUCACCCAUGUGUGGCAGGUAGGUCGCGAUAUAUAAC [Exclusion Arginine B GF9]	120 nM	250 nM	301 nM	327 nM	–
CCUAUGCAGUCGGCCGCCACUGAAAUCAAUAAGAUUACCUCAGAAACAUGAGGAUCACCCAUGUACAGGACCGGGACUGUAUAGG [Ex Tryptophan B 16]	20.6 nM	41.8 nM	37.2 nM	84.3 nM	40 nM
AAUAUAUAUCACGAACUGUGGUGUAUGUUGCGAGGACCGGUACGGCCGCCACUCGGCCGGUGGUACAUGAGGAUCACCCAUGUUG [XTryp A #9]	35.3 nM	48.7 nM	40.1 nM	28.2 nM	25.3 nM
AUUAUCAUGGUCAUAUAUAUUUCGUCAGAUACCAGACUAGAUAUAGUCCCUUGGCAGCUGUUACAUGAGGAUCACCCAUGUUAUU [JR_ExcTheophyA_Sub017]	32.2 nM	80.3 nM	–	96.3 nM	–
GGUGGCGUGACGGAUACCAGCCACCGCCGCAAGGCCACAUGAGGAUCACCCAUGUUGGGUGGCCCUUGGCAGCUGUCGUGCGGCG [#1 Same State - Theophylline B Attempt #21 (HarryS)]	121 nM	464 nM	–	378 nM	–
CAUACUUUAGUAUGUAAUGUGGACAGUGAUACCAGAUACGAAAGUAUCCCUUGGCAGCACAACAUGAGGAUCACCCAUGUAUUUU [Theophylline A 3]	20.9 nM	20 nM	–	19.2 nM	–
UAUUUUGGGCGCGAGCCCGGGAUAAUUGAUACCAGUGAAGAAGAGCGCCCUUGGCAGCGAAUCCUAACAUGAGGAUCACCCAUGU [5.Q]	52.5 nM	65.4 nM	–	45.1 nM	–

Sequence	apparent KD of MS2 coat protein (input ligand: arginine 13.2 mM)	apparent KD of MS2 coat protein [1]	apparent KD of MS2 coat protein [2]	apparent KD of MS2 coat protein [3]	apparent KD of MS2 coat protein (input ligand: none)
CACGAAAGAUCGGCCGCCACUAACCUGUGUGUACUAGCACAUGAGGAUCACCCAUGUUCUUGCGUUAGGACCGGGAUUGAGCGUG [#04 Exclusion Tryptophan B]	20.9 nM	30.7 nM	27.5 nM	–	–
UGUAUGUGAUCUGAUACCAGUGACACGAAAGUGAAUCGCUUGAGGAUCACCCAAGUAAAACACCCUUGGCAGCAGAUCGCAUACU [Full moving switch bubble 1]	20.3 nM	23.5 nM	25 nM	15.6 nM	15.6 nM
UGAAAGUAGGGAAGGAGCGCUACAACAUGAGGAUCACCCAUGUUAUGAGGAUCACCCGUGUGGCAGGUAGGUCGCCCAAAACAUG [#13 Same State - Arginine B]	40.6 nM	46.7 nM	35.6 nM	31.9 nM	43.9 nM
AUAAUGAGUGGUGGAUAGGUGAUCCUCUUACGAGGACCGGUACGGCCGCCACUCGAUAACAUGAGGAUCACCCAUGUAAUAAUAA [|T'-M'-Trp-Ms2|_Design19]	21 nM	22.6 nM	18.9 nM	–	–
AAUACCGGUCCUCGAAGGUGAUCCUCAUAACGAGGACCGGUACGGCCGCCACUCGAUAACAUGAGGAUCACCCAUGUAAUAAUAA [|T'-M'-Trp-Ms2|_Design6]	56.1 nM	175 nM	235 nM	–	–
CUCAUCCACGCGGCCGCCACUAUAUUGUGGUGUGAAUGUGACGUAUUACAAGAGGAUCACCCUUGUAGGACCGGGCGUGGAUGAG [Tryp B Ex Mod1]	28.5 nM	28.4 nM	34.2 nM	147 nM	20.3 nM
AGAGUCAGACAAAAGUCUGGCUCAGCCGAAGGAGCGUCCGAAAGGACAGGUAGGUCGCGGUUCCAUGAGGAUCACCCAUGGUCCU [ArgAS 28 #OpenEnded #AlternativeMS2]	47.1 nM	85.1 nM	119 nM	71.1 nM	85 nM
CAAAACCUUACAGAUACCAGCACAUGAGGAUCACCCAUGUAUUGGACACUUCGCUCAUCGUGCCCUUGGCAGCUGUGGGACGAGG [Tiatenan]	30.3 nM	132 nM	–	77.6 nM	–
AAACGUUGCUCAGAUACCAGACAUGAGGAUCACCCAUGUACCAAGGUAAAGAAAUAACGUGUCCCUUGGCAGCUGAGCAACGAAA [MAT - Exclusion Theophlline B - Mod of Eli - D11]	13.8 nM	13.8 nM	–	11.1 nM	–
UUUGAAAUAACAGAUACCAGCGUGUUAUAAAACAUGAGGAUCACCCAUGUAGUGAUCAAGCGCCCUUGGCAGCUGGUAUUUUAGG [7.F]	118 nM	208 nM	–	172 nM	–
UAAACAUGAGGAUCACCCAUGUUGGAUGAAGGAGCGACCAGAGGGUCAGGUAGGUCGCAUCACAUGAGGAUCACCCAUGUCAUUU [DOUBLE!!! :-D #12]	59.1 nM	114 nM	147 nM	97.7 nM	108 nM
UUGUAUAUGCGAAGGAGCGGGAAAUAUAUAUAUAUAAUCCUAACAUGAGGAUCACCCAUGUCCCAGGUAGGUCGCGCAUAUAUGG [12.F]	80.5 nM	80.7 nM	87.9 nM	78.3 nM	69.5 nM
UGGGUACAUGAGGAUCACCCAUGUACUGAAGGAGCGAGAAAUAACUCAGGUAGGUCGCAGACAUGAGGAUCACCCAUGUAAUAAA [Exclusion Arginine A GF 10]	16 nM	23.4 nM	22.5 nM	18 nM	18 nM
AGAGUCAGACAAAAGUCUGGCUCAGCCGAAGGAGCGUCCGAAAGGACAGGUAGGUCGCGGUUGCAUGAGGAUCACCCAUGUUCCU [ArgAS 30 #OpenEnded #AlternativeMS2]	76.7 nM	399 nM	528 nM	324 nM	286 nM
AUACCUAGUGAGUCGUGUUUCUUUUCAGAUACCAGACUUUUCGUUGUCCCUUGGCAGCUGUUUUACAUGAGGAUCACCCAUGUUG [JR_ExcTheophyA_Sub007]	16.1 nM	18.4 nM	–	15.2 nM	–
UAUAUAGUGAUGGAUACCAGCAGAGAAAACGUUUAUCCUAACAUGAGGAUCACCCAUGUAUGCCCUUGGCAGCUGUUGUUAUAUA [8.L]	20.8 nM	30.1 nM	–	21.4 nM	–
UAUGCACAUGAGGAUCACCCAUGUAUGGAAGGAGCGGUGAAUAAACCAGGUAGGUCGCCAUGGUGAGGAUCAUCUAUGUAAUCGU [Exclusion - Arginine A (Freestyle 6)]	62.3 nM	125 nM	103 nM	87.8 nM	93.2 nM
CGUAUUACGAAAGUAGUACGUAGUGUUCGACGAGGACCGGUACGGCCGCCACUCGGACAUGAGGAUCACCCAUGUAGCGAAAGCU [Tryptophan A 24]	46.1 nM	301 nM	247 nM	28.3 nM	255 nM
CAAUAUAUAGCGGCCGCCACUUACUCAUGAGGUAACAACAUGAGGAUCACCCAUGUUUGAGGAUCAAGGACCGGGCUAUAUAUUG [AstrosSSTryB#6]	22.2 nM	31.9 nM	32.2 nM	–	–

From the supplement of paper PMC9170038
